The source of these data is patent publication EP1169642B1 (THE GOVERNMENT OF THE UNITED STATES OF AMERICA, as …, dated 2006).

The target of this assay is T1, purified human complement Factor H (human, UniProt P08603 19-1231).
T1 construct: also called fH
Briefly: steady state tryptophan fluorescence titration of Factor H with BSP.

T1 sequence (P08603 19-1231 limits assumed): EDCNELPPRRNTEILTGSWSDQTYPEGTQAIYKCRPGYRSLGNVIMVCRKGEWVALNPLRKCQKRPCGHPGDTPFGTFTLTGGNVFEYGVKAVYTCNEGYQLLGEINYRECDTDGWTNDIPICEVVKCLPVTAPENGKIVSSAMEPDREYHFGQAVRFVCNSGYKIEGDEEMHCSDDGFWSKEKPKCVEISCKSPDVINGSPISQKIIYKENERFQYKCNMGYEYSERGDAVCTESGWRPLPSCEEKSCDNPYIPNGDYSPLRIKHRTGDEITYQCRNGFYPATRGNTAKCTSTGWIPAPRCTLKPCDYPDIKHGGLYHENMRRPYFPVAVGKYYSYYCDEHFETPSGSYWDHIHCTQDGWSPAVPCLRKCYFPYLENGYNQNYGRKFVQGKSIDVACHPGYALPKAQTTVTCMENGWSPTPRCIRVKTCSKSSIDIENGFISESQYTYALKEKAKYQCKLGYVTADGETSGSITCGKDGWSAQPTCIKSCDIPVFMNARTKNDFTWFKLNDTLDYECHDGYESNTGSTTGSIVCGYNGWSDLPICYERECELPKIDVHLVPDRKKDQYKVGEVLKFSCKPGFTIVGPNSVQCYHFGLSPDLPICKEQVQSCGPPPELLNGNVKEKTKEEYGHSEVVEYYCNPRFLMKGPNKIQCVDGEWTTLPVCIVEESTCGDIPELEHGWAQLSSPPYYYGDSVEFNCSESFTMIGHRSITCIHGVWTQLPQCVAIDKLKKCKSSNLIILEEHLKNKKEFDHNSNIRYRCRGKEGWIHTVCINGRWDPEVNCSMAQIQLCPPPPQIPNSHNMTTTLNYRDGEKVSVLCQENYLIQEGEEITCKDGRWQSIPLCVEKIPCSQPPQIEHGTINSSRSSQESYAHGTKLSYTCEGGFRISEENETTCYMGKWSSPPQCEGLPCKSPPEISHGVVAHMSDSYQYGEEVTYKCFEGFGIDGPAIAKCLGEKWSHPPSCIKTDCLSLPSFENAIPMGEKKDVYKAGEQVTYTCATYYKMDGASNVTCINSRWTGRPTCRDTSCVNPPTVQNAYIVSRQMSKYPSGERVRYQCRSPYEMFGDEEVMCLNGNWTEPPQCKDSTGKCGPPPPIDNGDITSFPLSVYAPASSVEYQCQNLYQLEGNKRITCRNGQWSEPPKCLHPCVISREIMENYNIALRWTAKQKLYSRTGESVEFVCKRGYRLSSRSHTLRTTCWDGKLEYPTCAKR

B1: human bone sialoprotein (BSP) (ligand)
chain: FSMKNLHRRVKIEDSEENGVFKYRPRYYLYKHAYFYPHLKRFPVQGSSDSSEENGDDSSEEEEEEEETSNEGENNEESNEDEDSEAENTTLSATTLGYGEDATPGTGYTGLAAIQLPKKAGDITNKATKEKESDEEEEEEEEGNENEESEAEVDENEQGINGTSTNSTEAENGNGSSGGDNGEEGEEESVTGANAEGTTETGGQGKGTSKTTTSPNGGFEPTTPPQVYRTTSPPFGKTTTVEYEGEYEYTGVNEYDNGYEIYESENGEPRGDNYRAYEDEYSYFKGQGYDGYDGQNYYHHQ
modifications: glycosylated, phosphorylated and tyrosine-sulfated glycoprotein (sites not given)
notes: Natural BSP of human serum is entered under the same molecule; also called rBSP; recombinant BSP
The Kd is the concentration at which binding is half-saturated. A higher Kd goes with a looser complex. For B1, the Kd was not above 1 nM and the “stoichiometry (BSP:Factor H)” value is 1 molar ratio.
